In patent US20120058906A1 (published 2012) one finds Kd, koff and kon data, which are given here for twelve molecules.

B1: Fab VH6-1_IGHD3-3*01_IGHJ4*01 & V4-3_IGLJ4*01 (Fab, V domains shown)
VH: QVQLQQSGPGLVKPSQTLSLTCAISGDSVSSNSAAWNWIRQSPSRGLEWLGRTYYRSKWYNDYAVSVKSRITINPDTSKNQFSLQLNSVTPEDTAVYYCAREYYDFWSGYYTDYFDYWGQGTLVTVSS
VL: QPVLTQPTSLSASPGASARLTCTLRSGINLGSYRIFWYQQKPESPPRYLLSYYSDSSKHQGSGVPSRFSGSKDASSNAGILVISGLQSEDEADYYCMIWHSSASFVFGGGTQLIIL
notes: Fab from E. coli; VH joined to CH1 with Flag and His tags (Plasmid A), VL to lambda CL (Plasmid E)
B2: Fab VH1-46_IGHD6-6*01_IGHJ1*01_S102A_S103P_S104F_H111F & L6_IGKJ1*01 (Fab, V domains shown)
VH: QVQLVQSGAEVKKPGASVKVSCKASGYTFTSYYMHWVRQAPGQGLEWMGIINPSGGSTSYAQKFQGRVTMTRDTSTSTVYMELSSLRSEDTAVYYCAREEYAPFSAEYFQFWGQGTLVTVSS
VL: not shown
notes: Modified Fab
B3: Fab VH1-46_IGHD6-6*01>1_IGHJ1*01_S104F & L6_IGKJ1*01 (Fab, V domains shown)
VH: QVQLVQSGAEVKKPGASVKVSCKASGYTFTSYYMHWVRQAPGQGLEWMGIINPSGGSTSYAQKFQGRVTMTRDTSTSTVYMELSSLRSEDTAVYYCAREEYSSFSAEYFQHWGQGTLVTVSS
VL: not shown
notes: Modified Fab
B4: Fab VH5-51_IGHD5-18*01>3_IGHJ4*01 & V3-4_IGLJ1*01 (Fab, V domains shown)
VH: EVQLVQSGAEVKKPGESLKISCKGSGYSFTSYWIGWVRQMPGKGLEWMGIIYPGDSDTRYSPSFQGQVTISADKSISTAYLQWSSLKASDTAMYYCARRGYSYGYDYFDYWGQGTLVTVSS
VL: QTVVTQEPSFSVSPGGTVTLTCGLSSGSVSTSYYPSWYQQTPGQAPRTLIYSTNTRSSGVPDRFSGSILGNKAALTITGAQADDESDYYCVLYMGSGISYVFGTGTKVTVL
notes: Germline Fab from E. coli; VH joined to CH1 with Flag/His tags (Plasmid A), VL to lambda constant region (Plasmid E)
B5: Fab VH6-1_IGHD3-3*01_IGHJ4*01 & V4-3_IGLJ4*01 (Fab, V domains shown)
VH: QVQLQQSGPGLVKPSQTLSLTCAISGDSVSSNSAAWNWIRQSPSRGLEWLGRTYYRSKWYNDYAVSVKSRITINPDTSKNQFSLQLNSVTPEDTAVYYCAREYYDFWSGYYTDYFDYWGQGTLVTVSS
VL: QPVLTQPTSLSASPGASARLTCTLRSGINLGSYRIFWYQQKPESPPRYLLSYYSDSSKHQGSGVPSRFSGSKDASSNAGILVISGLQSEDEADYYCMIWHSSASFVFGGGTQLIIL
notes: as for B4
B6: Fab VH1-46_IGHD3-10*01_IGHJ4*01 & L12_IGKJ1*01 (Fab, V domains shown)
VH: QVQLVQSGAEVKKPGASVKVSCKASGYTFTSYYMHWVRQAPGQGLEWMGIINPSGGSTSYAQKFQGRVTMTRDTSTSTVYMELSSLRSEDTAVYYCAREYYYGSGSYYNDYFDYWGQGTLVTVSS
VL: not shown
B7: Fab VH1-46_IGHD6-6*01_IGHJ1*01 & L6_IGKJ1*01 (Fab, V domains shown)
VH: QVQLVQSGAEVKKPGASVKVSCKASGYTFTSYYMHWVRQAPGQGLEWMGIINPSGGSTSYAQKFQGRVTMTRDTSTSTVYMELSSLRSEDTAVYYCAREEYSSSSAEYFQHWGQGTLVTVSS
VL: not shown
notes: Germline Fab from E. coli; VH joined to CH1 with Flag/His tags (Plasmid A), VL to kappa constant region (Plasmid C)
B8: Fab VH1-46_IGHD6-6*01_IGHJ1*01_S102A_S103P_S104F & L6_IGKJ1*01 (Fab, V domains shown)
VH: QVQLVQSGAEVKKPGASVKVSCKASGYTFTSYYMHWVRQAPGQGLEWMGIINPSGGSTSYAQKFQGRVTMTRDTSTSTVYMELSSLRSEDTAVYYCAREEYAPFSAEYFQHWGQGTLVTVSS
VL: not shown
notes: Modified anti-DLL4 Fab; kappa Plasmid C)
B9: Fab VH1-46_IGHD6-6*01_IGHJ1*01_S102A_S103P_S104F_H111Y & L6_IGKJ1*01 (Fab, V domains shown)
VH: QVQLVQSGAEVKKPGASVKVSCKASGYTFTSYYMHWVRQAPGQGLEWMGIINPSGGSTSYAQKFQGRVTMTRDTSTSTVYMELSSLRSEDTAVYYCAREEYAPFSAEYFQYWGQGTLVTVSS
VL: not shown
notes: as for B8
B10: Fab VH1-46_IGHD6-6*01_IGHJ1*01_S102A_S103P_S104F_H111F & L6_IGKJ1*01 (Fab, V domains shown)
VH: QVQLVQSGAEVKKPGASVKVSCKASGYTFTSYYMHWVRQAPGQGLEWMGIINPSGGSTSYAQKFQGRVTMTRDTSTSTVYMELSSLRSEDTAVYYCAREEYAPFSAEYFQFWGQGTLVTVSS
VL: not shown
notes: as for B8
B11: Fab VH1-46_IGHD6-6*01_IGHJ1*01_S102A_S103P_S104F & L6_IGKJ1*01_S31K (Fab, V domains shown)
VH: QVQLVQSGAEVKKPGASVKVSCKASGYTFTSYYMHWVRQAPGQGLEWMGIINPSGGSTSYAQKFQGRVTMTRDTSTSTVYMELSSLRSEDTAVYYCAREEYAPFSAEYFQHWGQGTLVTVSS
VL: EIVLTQSPATLSLSPGERATLSCRASQSVSKYLAWYQQKPGQAPRLLIYDASNRATGIPARFSGSGSGTDFTLTISSLEPEDFAVYYCQQRSNWPPWTFGQGTKVEIKR
notes: Modified anti-DLL4 Fab
B12: Fab VH1-46_IGHD6-6*01>1_IGHJ1*01_S104F & L6_IGKJ1*01 (Fab, V domains shown)
VH: QVQLVQSGAEVKKPGASVKVSCKASGYTFTSYYMHWVRQAPGQGLEWMGIINPSGGSTSYAQKFQGRVTMTRDTSTSTVYMELSSLRSEDTAVYYCAREEYSSFSAEYFQHWGQGTLVTVSS
VL: not shown
notes: as for B8

The first assay deals with T1, Recombinant Human DLL4 (R&D Systems, Cat#1506-D4/CF) (human, UniProt Q9NR61 27-529).
T1 construct: Bought protein; also called rHuman DLL4; delta-like protein 4
The experiment in a line: Surface Plasmon Resonance, recombinant human DLL4.
As a reminder, the Kd is a measure of binding affinity in units of concentration. With B1, the Kd is 38000 nM.

For B2, the Kd is 70.6 nM.

Turning to B3, the equilibrium dissociation constant (Kd) turned out to be 388 nM.

A further assay concerns the target T2, Recombinant Human DLL4 (delta-like protein 4) (human, UniProt Q9NR61 27-524).
T2 construct: Bought (R&D Systems Cat#1506-D4/CF); also called rHuman DLL4
The experiment in a line: SPR, Fab on recombinant human DLL4; standard deviation in parentheses. For orientation: Surface plasmon resonance follows binding to a sensor surface in real time, without labels.
Turning to B4, the equilibrium dissociation constant (Kd) was found to be 4800 nM.

For the molecule B5, the Kd came to 38000 nM.

As usually defined, the koff is the rate constant with which the complex falls apart. The term kon denotes the second-order rate constant of association. On to B6, for which the dissociation constant Kd was found to be 500 nM, the koff is 0.29 s⁻¹ and the kon was 500000 M⁻¹ s⁻¹.

For the molecule B7, the Kd is 730 nM, the koff came out at 0.101 s⁻¹ and the kon worked out at 163000 M⁻¹ s⁻¹.

For the molecule B8, the dissociation constant Kd turned out to be 122 nM, the off-rate constant (koff) was found to be 0.0492 s⁻¹ and the kon turned out to be 405000 M⁻¹ s⁻¹.

Take B9: the Kd came to 93.1 nM, the koff came to 0.0317 s⁻¹ and the association rate constant (kon) was 340000 M⁻¹ s⁻¹.

For the molecule B10, the dissociation constant Kd was determined as 70.6 nM, the dissociation rate constant (koff) was determined as 0.03 s⁻¹ and the kon came to 425000 M⁻¹ s⁻¹.

For B11, the equilibrium dissociation constant (Kd) is 112 nM, the off-rate (koff) is 0.0392 s⁻¹ and the kon is 350000 M⁻¹ s⁻¹.

Take B12: the dissociation constant (Kd) turned out to be 380 nM, the koff was found to be 0.19 s⁻¹ and the association rate constant (kon) amounted to 500000 M⁻¹ s⁻¹.
